Data on one molecule can be found in publication doi:10.1101/2025.07.29.667502, “Single-Molecule FRET Reveals Two T4 Phage MR Complex Exonuclease States Regulated by the Mre11 Dimer Interface” (bioRxiv, 2025).

The test addresses T1, T4 Rad50 (wild type) (bacteriophage T4, UniProt P04522 1-560).
T1 construct: Rad50 (gp46) of bacteriophage T4; the introduction says that the T4 complex is purified without truncation of Rad50's coiled-coil; also called WT Rad50; gp46; source: E. coli BL21 (DE3), purified (nickel column)
T1 sequence (looked up): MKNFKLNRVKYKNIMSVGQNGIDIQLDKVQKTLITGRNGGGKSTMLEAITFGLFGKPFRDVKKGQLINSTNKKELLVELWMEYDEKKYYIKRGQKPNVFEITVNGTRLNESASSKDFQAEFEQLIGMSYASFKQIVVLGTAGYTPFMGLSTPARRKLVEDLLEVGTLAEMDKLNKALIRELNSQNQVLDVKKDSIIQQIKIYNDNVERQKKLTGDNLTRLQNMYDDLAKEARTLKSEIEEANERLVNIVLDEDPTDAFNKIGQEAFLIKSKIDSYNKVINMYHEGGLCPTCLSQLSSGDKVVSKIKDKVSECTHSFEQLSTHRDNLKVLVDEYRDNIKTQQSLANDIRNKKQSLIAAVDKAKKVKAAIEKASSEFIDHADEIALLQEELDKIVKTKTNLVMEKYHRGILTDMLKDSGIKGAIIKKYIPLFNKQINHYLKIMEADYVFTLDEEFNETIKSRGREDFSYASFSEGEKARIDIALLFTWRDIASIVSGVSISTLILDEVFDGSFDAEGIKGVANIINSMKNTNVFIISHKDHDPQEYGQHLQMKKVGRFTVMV
The test is described as follows: negative-stain EM; WT T4-MR complex with ATPγS, in the absence of DNA. The note with it: both partners purified.

B1: T4 Mre11 (wild type) (enzyme, bacteriophage T4, UniProt P04521 1-339, looked up)
chain: MKILNLGDWHLGVKADDEWIRGIQIDGIKQAIEYSKKNGITTWIQYGDIFDVRKAITHKTMEFAREIVQTLDDAGITLHTIVGNHDLHYKNVMHPNASTELLAKYPNVKVYDKPTTVDFDGCLIDLIPWMCEENTGEILEHIKTSSASFCVGHWELNGFYFYKGMKSHGLEPDFLKTYKEVWSGHFHTISEAANVRYIGTPWTLTAGDENDPRGFWMFDTETERTEFIPNNTTWHRRIHYPFKGKIDYKDFTNLSVRVIVTEVDKNLTKFESELEKVVHSLRVVSKIDNSVESDDSEEVEVQSLQTLMEEYINAIPDITDSDREALIQYANQLYVEATQ
notes: Mre11 (gp47) of bacteriophage T4; Used together with WT Rad50 as the WT-MR complex; also called WT Mre11; gp47; source: E. coli BL21 (DE3), purified (chitin column)
As for B1, the binding result was “binds”.
